Assay results taken from patent US20250145684A1.
Where two headings read alike, the source gives them in different places.

Target: HLA-B*08:01 (human)
Experiment: UV peptide exchange ELISA

peptide exchange yield (remark: other sources report otherwise) [%]	peptide exchange yield [%]	Binder
50 to 75		EPVTKAEM [EPVTKAEM (SEQ ID NO: 97)]
	50 to 75	FAFEKLIQF (modifications not checked) [… (SEQ ID NO: 101)]
